Source: patent US20160031942A1 (LONDON HEALTH SCIENCES CENTRE RESEARCH, published 2016)
Ends that are not written are not given here. * marks the point of attachment. FITC = O=C1OC2(c3ccc(O)cc3Oc3cc(O)ccc32)c2ccc(NC(=S)*)cc21; Ahx = NCCCCCC(=O)O

T1: Recombinant protein RHAMM-CT (truncated RHAMM, carboxy terminus containing the HA binding domain, amino acids … (Mus musculus (Mouse), UniProt Q00547 706-766))
T1 construct: Expressed in E. coli BL21 from pPAL7-RHAMM as eXact-tagged protein and purified on Profinity eXact resin (fluoride elution); M.W. 7.1 kDa, pI 10.1; also called recombinant RHAMM
T1 sequence: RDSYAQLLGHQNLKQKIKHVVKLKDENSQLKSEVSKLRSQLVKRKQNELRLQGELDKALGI

T2: Recombinant protein RHAMM-CT (truncated RHAMM, carboxy terminus containing the HA binding domain, amino acids … (UniProt Q00547 706-766))
T2 chain: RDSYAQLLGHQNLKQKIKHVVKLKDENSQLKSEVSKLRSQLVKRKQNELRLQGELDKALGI


Tests used:
[1] = molecular target: T1, Recombinant protein RHAMM-CT (truncated …); assay: SPR screening (ProteON XPR36), RHAMM immobilised, peptide at 10 µM
Protocol: ProteON XPR36 system was used for the selection and ranking of different tubulin derived peptides against RHAMM. For immobilization of RHAMM, the ProteON GLC sensor chip surfaces were activated by amine coupling using 100 mM EDAC and 24 mM sulfo-NHS. RHAMM (30 μg/mL in sodium bicarbonate buffer, pH 9.7) was injected at a flow a rate of 30 μl/min. A buffer sample was injected on a different sensor plate for use as a reference. Ethanolamine HCl (1M, pH 8.5) was then injected to deactivate any remaining surface groups. Peptides (10 μM in PBS-T, 2% DMSO) were injected to a RHAMM functionalized surface at 50 μL/min for 3 minutes followed by a 10 minute dissociation (i.e. injection of PBS-T buffer) period. The surfaces were regenerated using two injections of 30 μL of 1M NaCl prior to the injection of the next peptide. In all experiments, reference subtraction was performed using data obtained from reference plate (No RHAMM) and RHAMM functionalized plate.
After immobilization of RHAMM on the SPR sensor chip, injection of a series of tubulin derived peptides was carried out. Association of the peptides with RHAMM proceeded for 3 minutes and the dissociation in analyte free buffer was carried out for 10 minutes. […]

[2] = molecular target: T2, Recombinant protein RHAMM-CT (truncated …); assay: SPR
[3] = molecular target: T1, Recombinant protein RHAMM-CT (truncated …); assay: solid phase peptide binding assay (ELISA), immobilised RHAMM

binding result [1]	Kd [2] [nM]	binding result [3]	Binder
binds	30		FTEAESNMNDLV-NH2 (Synthetic 12-mer made on Rink amide MBHA resin)
		binds	{FITC-Ahx}-EAFEDEEEEIDG-NH2 [peptide 12c (SEQ ID NO: 33), fluorescein-conjugated SEQ ID NO: 12]
